Experimental data as given in paper doi:10.1101/2025.11.15.688598 (bioRxiv, 2025).

Columns and labels:
[1] = target: T1, Cy5-labeled proliferating cell nuclear antigen (PCNA) (human, UniProt P12004 1-261, Cy5 maleimide on cysteine(s), positions not stated); test: single-molecule two-colour fluorescence imaging (Cy3-Cy5 co-localisation, Cy3 photobleaching steps); Cy5-PCNA loaded by RFC on bi-biotinylated lambda DNA on the DNA skybridge; 1 μM PAF15-Cy3 in reaction buffer incubated 10 min, unbound washed out; images 10-15 min after the start of washing; 150 mM potassium glutamate; room temperature (approximately 22°C); details: both partners purified
T1 sequence (P12004 whole entry): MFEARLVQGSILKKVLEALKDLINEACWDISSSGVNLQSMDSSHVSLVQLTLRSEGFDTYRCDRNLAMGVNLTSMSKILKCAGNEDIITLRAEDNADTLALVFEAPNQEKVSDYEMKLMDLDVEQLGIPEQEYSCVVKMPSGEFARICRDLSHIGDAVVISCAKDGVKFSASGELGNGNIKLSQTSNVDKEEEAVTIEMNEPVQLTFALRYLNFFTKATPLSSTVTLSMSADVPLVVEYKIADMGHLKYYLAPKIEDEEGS

[2] = target: T1, Cy5-labeled proliferating cell nuclear …; test: single-molecule two-colour fluorescence imaging (Cy3-Cy5 co-localisation, FRET, Cy3 photobleaching steps); Cy5-PCNA loaded by RFC on bi-biotinylated lambda DNA on the DNA skybridge; 1 μM PAF15-Cy3 in reaction buffer incubated 10 min, unbound washed out; images 10-15 min after the start of washing; 100 mM potassium glutamate; room temperature (approximately 22°C); details: both partners purified

B1: Cy3-labeled PAF15 (Cys54Ser variant, Cy3 at Cys99) (natural protein, human, UniProt Q15004 2-111, looked up)
chain: VRTKADSVPGTYRKVVAARAPRKVLGSSTSATNSTSVSSRKAENKYAGGNPVSVRPTPKWQKGIGEFFRLSPKDSEKENQIPEEAGSSGLGKAKRKACPLQPDHTNDEKE
modifications: Cy3 on Cys99 (maleimide-thiol reaction)
stoichiometry N [1]: 1 PAF15 per PCNA ring
stoichiometry N [2]: 2 PAF15 per PCNA ring
